Reference: patent publication US20240270866A1 (Alector, published 2024)

Key:
Mouse SIRPA D1 Fc = molecular target: T1, Mouse SIRPA D1 Fc (mouse, UniProt P97797 32-150, limits assumed); assay: ForteBio IgG avid;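 note: antibody IgG captured on AHQ biosensors, then 100 nM Fc-fused SIRP antigen applied for 3 min, followed by 3 min buffer dissociation, kinetics fitted to a 1:1 model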
T1 sequence: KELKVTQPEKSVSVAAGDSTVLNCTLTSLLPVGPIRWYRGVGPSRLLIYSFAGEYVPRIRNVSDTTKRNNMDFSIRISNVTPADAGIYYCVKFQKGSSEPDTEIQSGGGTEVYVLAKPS
Experimental: (§1) Briefly, ForteBio affinity measurements were performed by loading IgGs on-line onto AHQ sensors. Sensors were equilibrated off-line in assay buffer for 30 min and then monitored on-line for 60 seconds for baseline establishment. For avid binding measurement, sensors with loaded IgGs were exposed to 100 nM antigen (human SIRPA or SIRPβ1 Fc fusion) for 3 min, afterwards they were transferred to assay buffer for 3 min for off-rate measurement. Additional avid binding was determined by loading biotinylated SIRPA monomer on SA sensors and exposure to 100 nM IgG in solution. Monovalent binding measurements were obtained by loading human SIRPA or SIRPβ1 Fc fusion antigens to AHQ sensor and followed by exposure to 100 nM anti-SIRPA antibody Fab. Additional monovalent measurements were made by loading biotinylated human SIRPA or SIRPβ1 monomer to SA sensor followed by exposure to 100 nM Fab in solution. Kinetics data were fit using a 1:1 binding model in the data analysis software provided by ForteBio.

[1] = molecular target: T2, mouse SIRPA overexpressed on CHO cells (mouse, UniProt P97797 32-513); assay: flow, CHO-muSIRPA;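 for relative MFI: antibody binding measured by flow cytometry: cells stained with 1 ug/ml test antibody for 1 h on ice, detected with PE-labelled secondary antibody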
T2 construct: also called CHO-muSIRPA
T2 sequence: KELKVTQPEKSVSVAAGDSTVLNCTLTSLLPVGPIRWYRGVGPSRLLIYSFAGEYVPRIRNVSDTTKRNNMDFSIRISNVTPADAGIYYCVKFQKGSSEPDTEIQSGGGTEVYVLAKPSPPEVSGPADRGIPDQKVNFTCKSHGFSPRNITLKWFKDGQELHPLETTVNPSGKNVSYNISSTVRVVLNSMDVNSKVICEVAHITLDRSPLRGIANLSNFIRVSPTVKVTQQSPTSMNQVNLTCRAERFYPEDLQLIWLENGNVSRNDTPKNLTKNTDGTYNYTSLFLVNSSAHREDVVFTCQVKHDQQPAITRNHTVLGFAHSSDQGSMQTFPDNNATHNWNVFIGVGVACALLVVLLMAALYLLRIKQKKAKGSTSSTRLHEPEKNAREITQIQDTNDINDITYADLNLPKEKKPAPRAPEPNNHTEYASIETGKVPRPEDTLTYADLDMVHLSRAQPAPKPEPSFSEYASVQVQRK

[2] = molecular target: T2, mouse SIRPA overexpressed on CHO cells; assay: flow, CHO-muSIRPA; remark: listed apart in the source;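 for relative MFI: antibody binding measured by flow cytometry: cells stained with 1 ug/ml test antibody for 1 h on ice, detected with PE-labelled secondary antibody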
Human SIRPb D1 Fc = Human SIRPb D1 Fc (human, UniProt O00241 30-148, limits assumed); assay: ForteBio IgG avid;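 note: antibody IgG captured on AHQ biosensors, then 100 nM Fc-fused SIRP antigen applied for 3 min, followed by 3 min buffer dissociation, kinetics fitted to a 1:1 model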
Experimental: as §1

[3] = molecular target: T3, human SIRPA overexpressed on CHO cells (human, UniProt P78324 31-504); assay: flow, CHO-huSIRPA;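 note: Anti-SIRPA antibodies applied at 1 µg/mL for 1 h on ice, binding read by flow cytometry using a PE-labelled secondary antibody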
T3 construct: also called CHO-huSIRPA

Sequence of Human SIRPb D1 Fc (O00241 30-148 limits assumed): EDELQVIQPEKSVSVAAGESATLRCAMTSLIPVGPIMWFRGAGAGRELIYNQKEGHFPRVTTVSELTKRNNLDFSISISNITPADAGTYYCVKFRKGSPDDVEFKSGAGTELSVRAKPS

Binder	binding result (Mouse SIRPA D1 Fc)	relative MFI [1] [fold over background]	binding result [2]	binding result (Human SIRPb D1 Fc)	relative MFI [3] [fold over background]	Kd (Human SIRPb D1 Fc) [nM]
SA-9 (antibody, V domains shown, IgG) VH: not shown VL: DIQMTQSPSSVSASVGDRVTITCRASQGISSWLAWYQQKPGKAPKLLIYAASSLQSGVPSRFSGSGSGTDFTLTISSLQPEDFATYYCQQAYLYPITFGGGTKVENQ	no binding (tested: 100 nM)	0.646	no binding (tested: 1 ug/ml)			
SA-10 (antibody, V domains shown, IgG) VH: EVQLVESGGGLVQPGRSLRLSCAASGFTFDDYAMHWVRQAPGKGLEWVSGITWNSGSIGYADSVKGRFTISRDNAKNSLYLQMNSLRAEDTALYYCAKGKQYSANYFDYWGQGTLVTVSS VL: DIQMTQSPSTLSASVGDRVTITCRASQSISSWLAWYQQKPGKAPKLLIYEASSLESGVPSRFSGSGSGTEFTLTISSLQPDDFATYYCQQDNSLPYTFGGGTKVEIK	no binding (tested: 100 nM)	0.583	no binding (tested: 1 ug/ml)	no binding (tested: 100 nM)	4.62	
SA-11 (antibody, V domains shown, IgG) VH: EVQLVESGGGLVQPGRSLRISCAASGFTFGDYAMHWVRQAPGKGLEWVSGISWNSGSIGYADSVKGRFTISRDNAKNSLYLQMNSLRAEDTALYYCAKTRYGYYSYDFDLWGRGTLVTVSS VL: not shown	no binding (tested: 100 nM)	0.851	no binding (tested: 1 ug/ml)	no binding (tested: 100 nM)	0.972	
SA-15 (antibody, V domains shown, IgG) VH: QVQLVQSGAEVKKPGSSVKVSCKASGGTFSSYAISWVRQAPGQGLEWMGGIIPIFGTANYAQKFQGRVTITADESTSTAYMELSSLRSEDTAVYYCARDGSYSYATYWGQGTLVTVSS VL: EIVLTQSPATLSLSPGERATLSCRASQSVSSYLAWYQQKPGQAPRLLIYDASNRATGIPARFSGSGSGTDFTLTISSLEPEDFAVYYCQQPYNFPLTFGGGTKVEIK	no binding (tested: 100 nM)	0.512	no binding (tested: 1 ug/ml)		0.768	28.4
SA-17 (antibody, V domains shown, IgG) VH: QVQLVQSGAEVKKPGSSVKVSCKASGGTFSSYAISWVRQAPGQGLEWMGGIIPIFGTASYAQKFQGRVTITADESTSTAYMELSSLRSEDTAVYYCARDLSAFYVGPFDYWGQGTLVTVSS VL: EIVMTQSPATLSVSPGERATLSCRASQSVSSSLAWYQQKPGQAPRLLIYGASTRATGIPARFSGSGSGTEFTLTISSLQSEDFAVYYCQQDYIWPLTFGGGTKVEIK	no binding (tested: 100 nM)	0.476	no binding (tested: 1 ug/ml)	no binding (tested: 100 nM)	0.989	
SA-18 (antibody, V domains shown, IgG) VH: EVQLVESGGGLVQPGGSLRLSCAASGFTFSSYWMSWVRQAPGKGLEWVANIKSDGSEKYYVDSVKGRFTISRDNAKNSLYLQMNSLRAEDTAVYYCARDLSYEPSYPFDIWGQGTMVTVSS VL: DIQMTQSPSSVSASVGDRVTITCRASQGISSWLAWYQQKPGKAPKLLIYAASSLQSGVPSRFSGSGSGTDFTLTISSLQPEDFATYYCQQALSFPFTFGGGTKVEIK	no binding (tested: 100 nM)	0.56	no binding (tested: 1 ug/ml)	no binding (tested: 100 nM)	2.13	
SA-8 (antibody, V domains shown, IgG; also called SA-8 (parental)) VH: QVQLVESGGGVVQPGRSLRLSCAASGFTFSSYGMHWVRQAPGKGLEWVAVISYDGSNKYYADSVKGRFTISRDNSKNTLYLQMNSLRAEDTAVYYCAKEPRSYWHGYGMDVWGQGTTVTVSS VL: not shown	no binding (tested: 100 nM)	0.5	no binding (tested: 1 ug/ml)		57.8	
SA-20 (antibody, V domains shown, IgG) VH: QVQLVESGGGVVQPGRSLRLSCAASGFTFSSYGMHWVRQAPGKGLEWVAVISYDGSNKYYADSVKGRFTISRDNSKNTLYLQMNSLRAEDTAVYYCAKEPRSYWHGYGMDVWGQGTTVTVSS VL: not shown	no binding (tested: 100 nM)	0.786	no binding (tested: 1 ug/ml)	no binding (tested: 100 nM)	5.19	
SA-24 (antibody, V domains shown, IgG) VH: not shown VL: EIVLTQSPATLSLSPGERATLSCRASQSVSSYLAWYQQKPGQAPRLLIYDASNRATGIPARFSGSGSGTDFTLTISSLEPEDFAVYYCQQRLDWPYTFGGGTKVEIK	no binding (tested: 100 nM)	0.542	no binding (tested: 1 ug/ml)			
SA-30 (antibody, V domains shown, IgG) VH: QVQLVESGGGVVQPGRSLRLSCAASGFTFSSYGMHWVRQAPGKGLEWVAVIWYDGSNKYYADSVKGRFTISRDNSKNTLYLQMNSLRAEDTAVYYCARDTGSATTMWLYGMDVWGKGTTVTVSS VL: not shown	no binding (tested: 100 nM)	0.595	no binding (tested: 1 ug/ml)	no binding (tested: 100 nM)	41.2	
SA-33 (antibody, V domains shown, IgG) VH: QVQLVQSGAEVKKPGSSVKVSCKASGGTFSSYAISWVRQAPGQGLEWMGGIIPIFGTASYAQKFQGRVTITADESTSTAYMELSSLRSEDTAVYYCARDVGMARGDPYGMDVWGQGTTVTVSS VL: DIQMTQSPSSVSASVGDRVTITCRASQGISSWLAWYQQKPGKAPKLLISAASSLQSGVPSRFSGSGSGTDFTLTISSLQPEDFATYYCLQAYSFPFTFGGGTKVEIK	no binding (tested: 100 nM)	0.708	no binding (tested: 1 ug/ml)			
SA-46 (antibody, V domains shown, IgG) VH: EVQLLESGGGLVQPGGSLRLSCAASGFTFSTYAMSWVRQAPGKGLEWVSAISGSGGSTYYADSVKGRFTISRDNSKNTLYLQMNSLRAEDTAVYYCARESYDSSLHYYGMDVWGQGTTVTVSS VL: EIVLTQSPGTLSLSPGERATLSCRASQSVSSSYLAWYQQKPGQAPRLLIYGASSRATGIPDRFSGSGSGTDFTLTISRLEPEDFAVYYCQQHFSLPPTFGGGTKVEIK	no binding (tested: 100 nM)	0.476	no binding (tested: 1 ug/ml)			
SA-49 (antibody, V domains shown, IgG) VH: EVQLVESGGGLVKPGGSLRLSCAASGFTFSSYSMNWVRQAPGKGLEWVSSISSSSSYIYYADSVKGRFTISRDNAKNSLYLQMNSLRAEDTAVYYCARGAPSMQYSPYYYYGMDVWGQGTTVTVSS VL: DIQMTQSPSSVSASVGDRVTITCRASQGISSWLAWYQQKPGKAPKLLIYAASSLQSGVPSRFSGSGSGTDFTLTISSLQPEDFATYYCQQVSLYPPTFGGGTKVEIK	no binding (tested: 100 nM)	0.53	no binding (tested: 1 ug/ml)			
SA-54 (antibody, V domains shown, IgG) VH: QLQLQESGPGLVKPSETLSLTCTVSGGSISSSSYYWGWIRQPPGKGLEWIGSIYYSGSTYYNPSLKSRVTISVDTSKNQFSLKLSSVTAADTAVYYCARGSGIAAADTDGLPMDVWGQGTTVTVSS VL: DIQMTQSPSSVSASVGDRVTITCRASQGISSWLAWYQQKPGKAPKLLIYAASSLQSGVPSRFSGSGSGTDFTLTISSLQPEDFATYYCQQVYLFPITFGGGTKVEIK	no binding (tested: 100 nM)	0.461	no binding (tested: 1 ug/ml)			
SA-55 (antibody, V domains shown, IgG) VH: EVQLVESGGGLVQPGGSLRLSCAASGFTFSSYWMSWVRQAPGKGLEWVANIKQDGSEKYYVDSVKGRFTISRDNAKNSLYLQMNSLRAEDTAVYYCARGSPYYDAYDFDLWGRGTLVTVSS VL: DIQLTQSPSTLSASVGDRVTITCRASQAISSWLAWYQQKPGKAPKLLIYDASSLESGVPSRFSGSGSGTEFTLTISSLQPDDFATYYCQQYESFPWTFGGGTKVEIK	no binding (tested: 100 nM)	0.464	no binding (tested: 1 ug/ml)			
SA-5 (antibody, V domains shown, IgG; also called SA-5 (parental)) VH: not shown VL: DIQLTQSPSSVSASVGDRVTITCRASQDISSWLAWYQQKPGKAPKLLIYAASSLQSGVPSRFSGSGSGTDFTLTISSLQPEDFATYYCQQGYIFPRTFGGGTKVEIK	no binding (tested: 100 nM)	0.533	no binding (tested: 1 ug/ml)			
SA-51 (antibody, V domains shown, IgG) VH: QVQLVQSGAEVKKPGSSVKVSCKASGGTFSSYAISWVRQAPGQGLEWMGSIIPIFGTANYAQKFQGRVTITADESTSTAYMELSSLRSEDTAVYYCARGGYAAGTDYYMGVWGKGTTVTVSS VL: not shown	no binding (tested: 100 nM)		no binding (tested: 1 ug/ml)			
